Laboratory results taken from patent US7794964B2, “Biochip for the detection of phosphorylation and the detection method using the same” (Korea Atomic Energy Research Institute, priority 2008, dated 2010).

Legend:
cdc2 protein kinase = cdc2 protein kinase (Homo sapiens, UniProt P06493); test: Phosphorylation of cdc2 protein kinase substrate on biochip using [γ-32P]ATP; type: biochemical; conditions: 1.0 mg/ml substrate on aldehyde treated slide glass; 10 unit/ml cdc2 protein kinase; 0.1 μCi/μl [γ-32P]ATP; BSA negative control
Description: (§1) To fix substrate on the aldehyde-treated slide glass (Nuricell Inc., Korea), 0.1 mg/ml of the Mep45-kinase substrate fusion protein or 1.25 μg/ml of peptide substrate (Promega, Madison, Wis.) was integrated. Particularly, the recombinant Mep45-kinase substrate fusion protein solution (10% glycerol, PBS, pH 7.5) was prepared at the concentration of 0.1 mg/ml, and this substrate solution was integrated on the aldehyde-treated slide glass at the spot intervals of 300 μm by using microarray device (Genetix Ltd, UK). The size of the spot was regulated to be 300 μm. The integrated biochip was reacted in a humid chamber at room temperature for one hour, leading to fixation.
(§2) The biochip constructed in Example 2 was washed three times with PBS (200 mM NaCl, 3 mM KCl, 2 mM KH2PO4, 1 mM Na2HPO4, pH 7.5), followed by reaction of the kinase and substrate on the chip. Particularly, the chip was washed with kinase buffer (40 mM Tris-HCl, 20 mM MgCl2, 0.1 mg/ml BSA, pH 7.5) once. […]
1.0 mg/ml of PKTPKKAKKL (SEQ. ID. NO: 2) and Mep45 fusion substrate were integrated on the aldehyde treated slide glass, followed by phosphorylation using 10 unit/ml of cdc2 protein kinase and 0.1 μCi/μl of [γ-^32P]ATP. Phosphorylation was measured by using X-ray film or X-ray fluorescence spectrometer. […]

PKC (Protein Kinase C) = test: Phosphorylation of PKC substrate on biochip using [γ-32P]ATP; type: biochemical; conditions: 0.3 mg/ml substrate on aldehyde treated slide glass; 10 unit/ml PKC; 0.1 μCi/μl [γ-32P]ATP; BSA negative control
Description: as §1, §2
0.3 mg/ml of AAKIQASFRGHMARKK (SEQ. ID. NO: 1) and Mep45 fusion substrate were integrated on the aldehyde treated slide glass, followed by phosphorylation using 10 unit/ml of PKC and 0.1 μCi/μl of [γ-^32P]ATP. Phosphorylation was measured by using X-ray film or X-ray fluorescence spectrometer. […]

Sequence of cdc2 protein kinase (P06493 whole entry, the tested form may be a part): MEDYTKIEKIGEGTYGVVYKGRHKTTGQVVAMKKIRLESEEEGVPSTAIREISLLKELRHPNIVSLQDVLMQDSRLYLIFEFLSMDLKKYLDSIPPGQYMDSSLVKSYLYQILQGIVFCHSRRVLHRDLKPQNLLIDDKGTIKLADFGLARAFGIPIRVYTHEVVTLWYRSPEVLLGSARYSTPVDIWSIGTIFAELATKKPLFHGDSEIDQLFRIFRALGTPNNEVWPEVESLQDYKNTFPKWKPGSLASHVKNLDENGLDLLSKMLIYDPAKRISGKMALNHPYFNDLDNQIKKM
Sequence of cdc2 protein kinase (P14635 whole entry partner, the tested form may be a part): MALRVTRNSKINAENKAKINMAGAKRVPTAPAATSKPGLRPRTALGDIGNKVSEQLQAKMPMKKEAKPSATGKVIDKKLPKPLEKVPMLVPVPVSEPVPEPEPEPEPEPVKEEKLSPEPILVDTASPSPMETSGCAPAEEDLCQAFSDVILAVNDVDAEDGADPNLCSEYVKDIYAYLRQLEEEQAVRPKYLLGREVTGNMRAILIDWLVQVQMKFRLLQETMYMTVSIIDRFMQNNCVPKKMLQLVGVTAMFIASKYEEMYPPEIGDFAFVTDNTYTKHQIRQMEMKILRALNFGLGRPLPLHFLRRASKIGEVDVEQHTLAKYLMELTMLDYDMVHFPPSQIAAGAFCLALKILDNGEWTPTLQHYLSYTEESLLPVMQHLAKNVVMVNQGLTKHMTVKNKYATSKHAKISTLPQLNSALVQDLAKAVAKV

Sequence: PKTPKKAKKL (cdc2 Protein Kinase substrate) [peptide substrate for cdc2-PK (cdc2 Protein Kinase)]
- phosphorylation signal on the spot (X-ray film or X-ray fluorescence spectrometer) (cdc2 protein kinase): clear signal was detected

Sequence: AAKIQASFRGHMARKK (Protein Kinase C substrate) [peptide substrate for PKC (Protein Kinase C)]
- phosphorylation signal on the spot (X-ray film or X-ray fluorescence spectrometer) (PKC (Protein Kinase C)): clear signal was detected
